Changes are numbered by the printed parent chain. In names and notes the source's numbering stands.
B1: HPPDm-5-02: nucleotide sequence encoding Avena sativa HPPD with A111T+K351N+F372A+F383W; vector DBN11786 (nucleic acid)
DNA: ATGCCACCTACTCCAGCTACAGCTACTGGTGCTGCTGCTGCTGCCGTTACTCCTGAGCACGCTGCCAGGTCATTCCCCAGGGTGGTTCGCGTGAACCCCAGATCTGATAGGTTCCCAGTTCTGAGCTTCCACCATGTTGAGCTGTGGTGCGCTGATGCTGCTTCTGCTGCTGGCAGGTTCTCTTTCGCTCTTGGTGCTCCACTCGCTGCTAGATCTGATCTGTCTACAGGAAATAGCGCTCATGCCTCACTCCTGCTTCGCTCAGGTGCTTTGGCCTTCCTCTTCACCGCTCCATATGCTCCCCCACCTCAGGAGGCTGCTACTGCTGCTACTACAGCCTCCATTCCAAGCTTCTCAGCTGATGCCGCTAGAACCTTCGCTGCTGCTCATGGACTTGCCGTGAGGTCTGTTGGTGTTCGCGTGGCTGATGCTGCTGAGGCTTTCAGAGTTTCCGTTGCCGGCGGAGCTAGGCCAGCTTTCGCTCCTGCTGATTTGGGACATGGTTTCGGCCTGGCTGAGGTTGAGCTTTACGGTGACGTGGTTCTCCGCTTCGTGTCTTACCCAGATGAGACTGACCTGCCTTTCCTTCCCGGCTTCGAGAGAGTTTCCTCTCCTGGTGCCGTGGATTACGGCCTGACAAGGTTCGACCACGTGGTTGGAAACGTTCCCGAGATGGCTCCAGTGATCGATTACATGAAGGGCTTCCTTGGATTCCATGAGTTCGCCGAGTTCACTGCTGAGGACGTGGGAACCACTGAGTCCGGTTTGAACTCTGTGGTTCTCGCCAACAATTCTGAGGCTGTTTTGCTCCCTCTGAATGAGCCTGTGCATGGAACCAAGAGGAGAAGCCAGATTCAAACTTACCTGGAGTACCACGGTGGCCCTGGAGTTCAGCATATCGCCCTTGCTTCTAATGATGTGTTGCGCACACTCAGAGAGATGCGCGCCAGAACCCCCATGGGAGGTTTCGAGTTCATGGCCCCACCACAGGCTAAGTACTACGAGGGCGTTAGAAGGATTGCTGGAGACGTGTTGAGCGAGGAGCAGATCAATGAGTGCCAAGAGCTGGGTGTTCTTGTGGATAGGGATGACCAGGGCGTTCTGCTTCAAATTGCCACTAAGCCAGTGGGCGACCGCCCTACATTCTGGCTTGAGATGATTCAAAGAATCGGCTGCATGGAGAAGGATGAGGTTGGACAGGAGTACCAAAAGGGCGGATGCGGTGGCTTCGGAAAGGGTAACTTCAGCGAGTTGTTCAAGTCAATCGAGGACTACGAGAAGAGCCTCGAGGTGAAGCAGTCAGTGGTTGCCCAAAAGTCCTGA
modifications: HPPDm-5-02 Nucleotide Sequence
notes: vector DBN11786
B2: HPPDm-6-02: nucleotide sequence encoding Avena sativa HPPD with A106G+K351N+F372A+F383W; vector DBN11787 (nucleic acid)
DNA: B1 DNA with C317G, A331G
modifications: HPPDm-6-02 Nucleotide Sequence
notes: vector DBN11787

Columns and labels:
Assay type in all cases: in vivo
[1] = system: Arabidopsis thaliana T1 plants; experiment: Topramezone tolerance of transgenic Arabidopsis thaliana T1 plants (spray, bleached leaf area grade, damage score); conditions: Table 10; for Classification and statistics of the grade of pesticide damage Grade 0: number of plants at grade 0; for Classification and statistics of the grade of pesticide damage Grade 1: number of plants at grade 1; for Classification and statistics of the grade of pesticide damage Grade 2: number of plants at grade 2; for Classification and statistics of the grade of pesticide damage Grade 3: number of plants at grade 3; for Scores: pesticide damage score
Procedure, shortened: (§1)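 Read-out: per-plant damage grade 0–3 from proportion of bleached leaf area at 7 DAT (1 <50%, 2 >50%, 3 100%). Plants were T1 transformants, glufosinate-selected, plus wild-type CK, sprayed 18 days post-sowing. Rates: topramezone 25–200, isoxaflutole 35–280, mesotrione 52.5–420 g ai/ha.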

[2] = system: Arabidopsis thaliana T1 plants; experiment: Isoxaflutole tolerance of transgenic Arabidopsis thaliana T1 plants (spray, bleached leaf area grade, damage score); conditions: Table 11; for Classification and statistics of the grade of pesticide damage Grade 0: number of plants at grade 0; for Classification and statistics of the grade of pesticide damage Grade 1: number of plants at grade 1; for Classification and statistics of the grade of pesticide damage Grade 2: number of plants at grade 2; for Classification and statistics of the grade of pesticide damage Grade 3: number of plants at grade 3; for Scores: pesticide damage score;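 for Scores: Weighted damage index from 0 to 100 where higher means more damage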
Procedure, shortened: as §1

[3] = system: Arabidopsis thaliana T1 plants; experiment: Mesotrione tolerance of transgenic Arabidopsis thaliana T1 plants (spray, bleached leaf area grade, damage score); design: Scores: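 damage score 0-100 computed as Σ(N×S)/(T×M)×100 over grades 0-3 with higher meaning more damage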; conditions: Table 12; for Classification and statistics of the grade of pesticide damage Grade 0: number of plants at grade 0; for Classification and statistics of the grade of pesticide damage Grade 1: number of plants at grade 1; for Classification and statistics of the grade of pesticide damage Grade 2: number of plants at grade 2; for Classification and statistics of the grade of pesticide damage Grade 3: number of plants at grade 3; for Scores: pesticide damage score
Procedure, shortened: as §1

| Molecule | Resistance evaluation ([1]; topramezone 100 g ai/ha (4×)) | Classification and statistics of the grade of pesticide damage Grade 0 ([1]; topramezone 100 g ai/ha (4×)) | Classification and statistics of the grade of pesticide damage Grade 1 ([1]; topramezone 100 g ai/ha (4×)) | Classification and statistics of the grade of pesticide damage Grade 2 ([1]; topramezone 100 g ai/ha (4×)) | Classification and statistics of the grade of pesticide damage Grade 3 ([1]; topramezone 100 g ai/ha (4×)) | Scores ([1]; topramezone 100 g ai/ha (4×)) | Resistance evaluation ([1]; topramezone 200 g ai/ha (8×)) | Classification and statistics of the grade of pesticide damage Grade 0 ([1]; topramezone 200 g ai/ha (8×)) | Classification and statistics of the grade of pesticide damage Grade 1 ([1]; topramezone 200 g ai/ha (8×)) | Classification and statistics of the grade of pesticide damage Grade 2 ([1]; topramezone 200 g ai/ha (8×)) | Classification and statistics of the grade of pesticide damage Grade 3 ([1]; topramezone 200 g ai/ha (8×)) | Scores ([1]; topramezone 200 g ai/ha (8×)) | Resistance evaluation ([2]; isoxaflutole 140 g ai/ha (2×)) | Classification and statistics of the grade of pesticide damage Grade 0 ([2]; isoxaflutole 140 g ai/ha (2×)) | Classification and statistics of the grade of pesticide damage Grade 1 ([2]; isoxaflutole 140 g ai/ha (2×)) | Classification and statistics of the grade of pesticide damage Grade 2 ([2]; isoxaflutole 140 g ai/ha (2×)) | Classification and statistics of the grade of pesticide damage Grade 3 ([2]; isoxaflutole 140 g ai/ha (2×)) | Scores ([2]; isoxaflutole 140 g ai/ha (2×)) | Resistance evaluation ([2]; isoxaflutole 280 g ai/ha (4×)) | Classification and statistics of the grade of pesticide damage Grade 0 ([2]; isoxaflutole 280 g ai/ha (4×)) | also measured |
| --- | --- | --- | --- | --- | --- | --- | --- | --- | --- | --- | --- | --- | --- | --- | --- | --- | --- | --- | --- | --- | --- |
| B1 | Highly resistant | 16 | 0 | 0 | 0 | 0 | Highly resistant | 16 | 0 | 0 | 0 | 0 | Highly resistant | 16 | 0 | 0 | 0 | 0 | Highly resistant | 14 | Classification and statistics of the grade of pesticide damage Grade 1 ([2]; isoxaflutole 280 g ai/ha (4×)): 1; Classification and statistics of the grade of pesticide damage Grade 2 ([2]; isoxaflutole 280 g ai/ha (4×)): 1; Classification and statistics of the grade of pesticide damage Grade 3 ([2]; isoxaflutole 280 g ai/ha (4×)): 0; Scores ([2]; isoxaflutole 280 g ai/ha (4×)): 6; Resistance evaluation ([3]; mesotrione 210 g ai/ha (2×)): Highly resistant; Classification and statistics of the grade of pesticide damage Grade 0 ([3]; mesotrione 210 g ai/ha (2×)): 16; Classification and statistics of the grade of pesticide damage Grade 1 ([3]; mesotrione 210 g ai/ha (2×)): 0; Classification and statistics of the grade of pesticide damage Grade 2 ([3]; mesotrione 210 g ai/ha (2×)): 0; Classification and statistics of the grade of pesticide damage Grade 3 ([3]; mesotrione 210 g ai/ha (2×)): 0; Scores ([3]; mesotrione 210 g ai/ha (2×)): 0; Resistance evaluation ([3]; mesotrione 420 g ai/ha (4×)): Highly resistant; Classification and statistics of the grade of pesticide damage Grade 0 ([3]; mesotrione 420 g ai/ha (4×)): 16; Classification and statistics of the grade of pesticide damage Grade 1 ([3]; mesotrione 420 g ai/ha (4×)): 0; Classification and statistics of the grade of pesticide damage Grade 2 ([3]; mesotrione 420 g ai/ha (4×)): 0; Classification and statistics of the grade of pesticide damage Grade 3 ([3]; mesotrione 420 g ai/ha (4×)): 0; Scores ([3]; mesotrione 420 g ai/ha (4×)): 0 |
| B2 | Highly resistant | 16 | 0 | 0 | 0 | 0 | Highly resistant | 16 | 0 | 0 | 0 | 0 | Highly resistant | 16 | 0 | 0 | 0 | 0 | Highly resistant | 13 | Classification and statistics of the grade of pesticide damage Grade 1 ([2]; isoxaflutole 280 g ai/ha (4×)): 3; Classification and statistics of the grade of pesticide damage Grade 2 ([2]; isoxaflutole 280 g ai/ha (4×)): 0; Classification and statistics of the grade of pesticide damage Grade 3 ([2]; isoxaflutole 280 g ai/ha (4×)): 0; Scores ([2]; isoxaflutole 280 g ai/ha (4×)): 6; Resistance evaluation ([3]; mesotrione 210 g ai/ha (2×)): Highly resistant; Classification and statistics of the grade of pesticide damage Grade 0 ([3]; mesotrione 210 g ai/ha (2×)): 16; Classification and statistics of the grade of pesticide damage Grade 1 ([3]; mesotrione 210 g ai/ha (2×)): 0; Classification and statistics of the grade of pesticide damage Grade 2 ([3]; mesotrione 210 g ai/ha (2×)): 0; Classification and statistics of the grade of pesticide damage Grade 3 ([3]; mesotrione 210 g ai/ha (2×)): 0; Scores ([3]; mesotrione 210 g ai/ha (2×)): 0; Resistance evaluation ([3]; mesotrione 420 g ai/ha (4×)): Highly resistant; Classification and statistics of the grade of pesticide damage Grade 0 ([3]; mesotrione 420 g ai/ha (4×)): 16; Classification and statistics of the grade of pesticide damage Grade 1 ([3]; mesotrione 420 g ai/ha (4×)): 0; Classification and statistics of the grade of pesticide damage Grade 2 ([3]; mesotrione 420 g ai/ha (4×)): 0; Classification and statistics of the grade of pesticide damage Grade 3 ([3]; mesotrione 420 g ai/ha (4×)): 0; Scores ([3]; mesotrione 420 g ai/ha (4×)): 0 |
